In this assay the target is full length gp41 HIV protein (Abcam) (human immunodeficiency virus-1 (HIV-1)). In words: titration ELISA, wells coated with 1 µg/mL antigen, 2F5 in 4-fold dilutions from 30 µg/mL. A general note: ELISA stands for enzyme-linked immunosorbent assay.

As usually defined, the EC50 (read off the curve) is the concentration needed to bring the measured effect to its halfway point. Turning to “2F5 broadly neutralizing human monoclonal antibody”, the EC50 (read off the curve) worked out at 0.1 µg/mL.

The values above are taken from US20260217800A1.
